# Experimental data published in doi:10.1101/2025.01.07.631702 (bioRxiv, 2025).
# Assays:
# [1] = biological target: heavy-chain (HC-) FSAP (residues 24-291) (human) (UniProt Q14520); experiment: MST
# [2] = biological target: the molecule itself; experiment: dynamic light scattering
molecule,measurement,setting,value
Histone-H1 (natural protein),Kd,[1],2000 nM
"heavy-chain (HC-) FSAP (residues 24-291) (domain or fragment, labelled with the Monolith protein labelling kit RED-NHS (in the MST only)) FSLMSLLESLDPDWTPDQYDYSYEDYNQEENTSSTLTHAENPDWYYTEDQADPCQPNPCEHGGDCLVHGSTFTCSCLAPFSGNKCQKVQNTCKDNPCGRGQCLITQSPPYYRCVCKHPYTGPSCSQVVPVCRPNPCQNGATCSRHKRRSKFTCACPDQFKGKFCEIGSDDCYVGDGYSYRGKMNRTVNQHACLYWNSHLLLQENYNMFMEDAETHGIGEHNFCRNPDADEKPWCFIKVTNDKVKWEYCDVSACSAQDVAYPEESPTEP",binding result,[2],binds
